B1: KLHL14 (parent)
chain: NETGYLSSVECYNLETNEWRYVSS

Variants of: B1
Assay: protein stability index of a GFP-peptide fusion (GPS, HEK-293T) (PSI 1-6); higher = more stable
Details: c terminus: a fixed tail appended
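Note: lentivirally expressed fusions sorted by FACS into six bins by GFP to DsRed ratio, PSI derived from sequencing read proportions per bin multiplied by bin number.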

Protein stability index: each site, then its substitutions
G4: I 2.34; N 3.82; V 2.58; D 4; K 3.56; P 3.92; Q 3.77; C 1.98; F 2.39; S 3.22; M 2.77; H 3.17; E 3.56; T 2.8; L 2.67; R 2.64; Y 2.46; W 1.68
S7: P 3.88; L 2.24; F 1.64; K 2.96; N 3.89; W 2.11; Y 2.26; G 3.47; V 2.45; Q 3.86; H 2.8; C 2.52; E 4.08; A 3.42; R 3.64; M 2.48; I 2.46; T 3.45; D 3.89
L6: N 3.08; D 3.78; I 3.24; S 3.63; M 3.45; F 2.87; Y 2.86; R 3.82; A 3.63; C 3.21; V 3.39; W 4.46; K 3.89; H 4.23; E 4.29; Q 3.69; T 3.97; P 4.19; G 3.62
S8: F 2.1; E 4.43; R 2.35; A 3.34; Y 1.67; H 2.17; T 3.27; C 2.55; G 3.76; D 4.02; Q 3.29; I 2.29; M 2.73; V 2.77; P 4.21; K 2.85; L 2.77; N 4.16
C11: N 4.18; R 3.73; I 2.55; F 2.83; L 2.97; Q 4.11; H 4.09; W 4.03; V 2.76; D 4.58; K 3.58; Y 3.06; E 3.8; S 3.77; G 3.91; M 3.23; T 3.6; P 3.92
Y12: A 3.94; V 4.09; S 4; F 3.69; D 4.55; M 3.5; N 3.78; P 4.05; R 3.72; K 3.97; I 2.95; Q 3.84; E 4.24; G 3.76; C 3.36; L 3.67; T 3.89; H 3.81
V9: N 4.11; K 2.96; E 4; H 3.88; T 3.4; L 3.12; A 4.07; P 3.84; G 3.88; W 2.43; C 3.35; Y 3.14; S 3.87; D 4.39; Q 3.85; M 3.62; F 2.67; R 3.41; I 3.16
Y5: F 3.71; G 4.01; V 3.8; M 3.64; N 4.2; E 4.24; T 4.72; W 2.52; R 3.2; P 4; I 4; H 4.18; Q 4.24; S 4.16; A 4.24; C 3.9; L 3.46; D 4.57; K 3.41
E10: P 2.83; R 3.23; G 2.72; W 1.75; M 1.86; F 1.64; A 2.72; L 1.45; Q 3.42; T 2.98; N 2.48; D 3.18; V 1.71; H 2.22; K 3.05; C 2.46; Y 1.58; I 1.69; S 1.94

Source: the supplement of paper PMC10567573
